In the DeepSol protein solubility set:

Experiment: soluble on expression in E. coli; label from the status in PepcDB or PDB records

Sequence	soluble on expression in E. coli
SLRAKNQLFLLSPHYLRQVKESSGSRLIQQRLLHQQQPLHPEWAALAKKQLKGKNPEDLIWHTPEGISIKPLYSKRDTMDLPEELPGVKPFTRGPYPTMYTFRPWTIRQYAGFSTVEESNKFYKDNIKAGQQGLSVAFDLATHRGYDSDNPRVRGDVGMAGVAIDTVEDTKILFDGIPLEKMSVSMTMNGAVIPVLANFIVTGEEQGVPKEKLTGTIQNDILKEFMVRNTYIFPPEPSMKIIADIFEYTAKHMPKFNSISISGYHMQEAGADAILELAYTLADGLEYSRTGLQAGLTIDEFAPRLSFFWGIGMNFYMEIAKMRAGRRLWAHLIEKMFQPKNSKSLLLRAHCQTSGWSLTEQDPYNNIVRTAIEAMAAVFGGTQSLHTNSFDEALGLPTVKSARIARNTQIIIQEESGIPKVADPWGGSYMMECLTNDVYDAALKLINEIEEMGGMAKAVAEGIPKLRIEECAARRQARIDSGSEVIVGVNKYQLEKEDTVEVLAIDNTSVRNRQIEKLKKIKSSRDQALAERCLAALTECAASGDGNILALAVDASRARCTVGEITDALKKVFGEHKANDRMVSGAYRQEFGESKEITSAIKRVHKFMEREGRRPRLLVAKMGQDGHDRGAKVIATGFADLGFDVDIGPLFQTPREVAQQAVDADVHAVGVSTLAAGHKTLVPELIKELNSLGRPDILVMCGGVIPPQDYEFLFEVGVSNVFGPGTRIPKAAVQVLDDIEKCLEKKQQSV	not soluble
SLREHLMSIEVANESGIDVSEAELVSVARFVIAKMDVNPCAELSMLLLDTAAMADLHMRWMDLPGPTDVMSFPMDELEPGGRPDAPEPGPSMLGDIVLCPEFAAEQAAAAGHSLGHELALLTIHGVLHLLGYDHAEPDEEKEMFALQDRLLEEWVADQVEAYQHDRQDEKDRRLLDKSRYFDL	not soluble
SLRSFEAPNGVAFASIGDTGAANSNQAKCGISLAALSVALDIKFVNLLGDNLYPHGVTSAVDPLWQSAFEVPFGAPSLQKVAFFPVLGNHDYHLDPYAQIDRCIRLGNEHLNFTEKEKTDGSRPQLSKTYQMQAMLPWMKIHHEKFRYSFDQTTKMHGLDGPRWRLPNFWYFTRHVFRNVPRHVKNPFVTGASISDISLVSTEEDKTDVTVVTIYIDSMVLLLEEGSKSSSIRYRFPRDELYYRHLEFLEDTLKAATREADWIFIAGHHPVVNYSVRNAKPSDFAVRLTELMRKYKVDTFLSGHEHALSFFQEPDANTTHIISGTGSKLSARDPIPSKDCLFSVREHGVAVHVLGKEELHHGFVSADGKVLFTASQRRQDRT	soluble
SLRYASDFEEIAVLGQGAFGQVVKARNALDSRYYAIKKIRHTEEKLSTILSEVMLLASLNHQYVVRYYAAWLERRNFVKPMTAVKKKSTLFIQMEYCENRTLYDLIHSENLNQQRDEYWRLFRQILEALSYIHSQGIIHRDLKPMNIFIDESRNVKIGDFGLAKNVHRSLDILKLDSQNLPGSSDNLTSAIGTAMYVATEVLDGTGHYNEKIDMYSLGIIFFEMIYPFSTGMERVNILKKLRSVSIEFPPDFDDNKMKVEKKIIRLLIDHDPNKRPGARTLLNSGWLPVKHQDEVIKEALKSL	soluble
SLSAKDKANVKAIWGKILPKSDEIGEQALSRMLVVYPQTKAYFSHWASVAPGSAPVKKHGITIMNQIDDCVGHMDDLFGFLTKLSELHATKLRVDPTNFKILAHNLIVVIAAYFPAEFTPEIHLSVDKFLQQLALALAEKYR	soluble
SLSCRKEQGKFYDHLLRDCISCASICGQHPKQCAYFCENKLR	soluble
SLSQIKVLIVDDARFIRDHVTRIVKEHFPEYQIDAAEDGDDGQKAMSKVDYDLILCDWEMPGKSGLELLTWARSQPHYADIPFVMVTEG	soluble
SLSSTVSYWILNSTRNSIATLQGGRRLYSRYVSNRNKLKWRLFSRVPPTLNSSPCGGFTLCKAYRHTSTEEDDFHLQLSPEQINEVLRAGETTHKILDLESRVPNSVLRFESNQLAANSPVEDRRGVASCLQTNGLMFGIFDGHGGHACAQAVSERLFYYVAVSLMSHQTLEHMEGAMESMKPLLPILHWLKHPGDSIYKDVTSVHLDHLRVYWQELLDLHMEMGLSIEEALMYSFQRLDSDISLEIQAPLEDEVTRNLSLQVAFSGATACMAHVDGIHLHVANAGDCRAILGVQEDNGMWSCLPLTRDHNAWNQAELSRLKREHPESEDRTIIMEDRLLGVLIPCRAFGDVQLKWSKELQRSILERGFNTEALNIYQFTPPHYYTPPYLTAEPEVTYHRLRPQDKFLVLASDGLWDMLSNEDVVRLVVGHLAEADWHKTDLAQRPANLGLMQSLLLQRKASGLHEADQNAATRLIRHAIGNNEYGEMEAERLAAMLTLPEDLARMYRDDITVTVVYFNSESIGAYYKGG	not soluble
SLTLPQTERQYLSGHGCDDMVEWDFFCTDGRNSGKWTKIGVPSCWELQGFGTYQYGITFYGKAFPEGIADEKGMYKYEFEVPEKFRGQQVNLVFEASMTDTEVKVNGRKVGSKHQGAFYRFSYNVTDFLKYGKKNLLEVTVSKESENASVNLAERRADYWNFGGIFRPVFLEVKPAINLRHIAIDAQMDGSFRANCYTNLSNDGMSIRAQILDNKGKKLTETTVPVKAGGDWTSLQLKVSDPALWTAETPNLYKAQFSLLDKDGKVLHNETETFGFRTIEVRESDGLYVNGVRIMVRGVNRHSFRPESGRTLSKAKNIEDVLLMKDMNMNSVRLSHYPADPEFLEACDSLGLYVMDELGGWHGKYDTPTGVRLIKGMIERDVNHPSIIWWSNGNEKGWNTELDGEFHKYDPQKRPVIHPQGNFSGFETMHYRSYGESQNYMRLPEIFMPTEFLHGLYDGGHGAGLYDYWEMMRKHPRCIGGFLWVLADEGVKRVDMDGFIDNQGNFGADGIVGPHHEKEGSFYTIKQLWSPVQIMNTSVDKQFDGKFSVENRYDYLNLNTCRFLWKQVKFPTATDASNTTAQVLKQGEVQGSDVAAHSAGVLDIKTTILPDADALFLTAIDRYGHELWRWTFPVNKLNQANEVLSPLSNEG	soluble
SLVLMSETKNELEDLLEKAATEPAHRPAFFRTLLESTVWVPGTAAQGEAVVEDSALDLQHWEKEDGTSVIPFFTSLEALQQVVEDEQAFVVMPVRTLFEMTLGETLFLNAKLPTGKEFMPREISLLIGEEGNSLSSQEVLEGGESLILSEVAEPPVQMIDSLTTLFKTIKPVKRAFICLIKESEEAQPNLLIGIEADGDIEEIIQAAGSVATDTLPGDEPIDICQVKKGEKGISHFITEHIAPFYERRWGGFLRDFKQNRII	soluble
SLVSSMHDLLLRNVRPMAGEACDIMIRNGKITGFGKFDAEPGLPVEDGKGAIAVPGLIDAHTHLDKTTWGMPWHVNNRAAILRERIDFERENRVQIGIDPHRQSMRHAIGLAANGGTHIRSHVDIDPTHGLKLVEGIWETREKLDGIIDIEVVAFPQSGVMVMPGTVELLDEALKQGCEVLGGIDPCGIDRDPKGQLDILFQLATKHGVPIDIHLHEAADLGAFTMELIFERIRANGMQGNVAISHAFALGMNDYLRVGRLIDEIARLDVAILTTGAPSASVPSIMRLKEAGVRVGGGCDGIRDTWGPWGQPDMLDRAKIIGMKNGLRSDVELAHVLHVVSRGGADVMGIEDYGMEIGCAADFTLLTGETLAHAVVDITPRPLVVKGGRVTARNGKAIVEAP	soluble
SMHPVAGSNPAFCGPGKPSCLNEDAMRAADQFDLYSSQQNKYSHTVSHKPMVCQRQDPLNETHLQPTSGRNIEIKDELKKKKNLNRSGKRGRPSGTTKSAGYRTSTGRPLGTTKAAGFKTSPGRPLGTTKAAGYKVSPGRPPGSIKALSRLADLGYGCGTAAFPYPMMHSRVVHGLQETSGEVKPPSE	soluble
SMSRPDQAARRRAIAAELHVSPTFDARDEAERRIGFVADYLRTAGLRACVLGISGGIDSSTAGRLAQLAVERLRASGYDARFVAMRLPYGAQHDEADARRALAFVRADETLTVDVKPAADAMLAALAAGGLAYLDHAQQDFVLGNIKARERMIAQYAVAGARNGVVIGTDHAAESVMGFFTKFGDGGADVLPLAGLTKRRVRALARMLGADEPLVLKTPTADLETLRPQRPDEHAYGITYEQIDDFLEGKPMDDAVAETVLRFYDATRHKRALPYTMFDWPGHPA	soluble
SNAASATETNTAPSADTQAPKPVNTVTSDVDCSVSAAWGLYKFNQKSNFSAEFEMPESVKAGTGFDALIKIKDISVSNDNLSGYKNAKLTKSSIRINVGKNVKLDGNQPGLSLSNGVLSINDHLKASLEGNSLRISAAPITVRLQALTEGTLTFIPEKTILTNTASVDGYTANTTCTTNADKPFATVKVDPADGLTITAPESASIKQDVQITATVPEKLNEKMDGKVQFFVNHIAAGDPVPVTEDNKASTSIIFDTSGSKTITARFIDAEGYNPAPDGETIIPVVTELDTKKPEDTDSYTGLINGSATSLLKPAKVMPGEKVSVSASLLPNKAPIRVYEIGINAPEDVKYIDGTGKTNYSSKLATTGSVFSSPGSGYYDPEWKNESKKPNESYRGFHSDTSYSVVDTSPQTVSAEFEIPKTLAPGIYMFQMGVYKYSNSLKDLVSIPETAFEIAGPDLPALPERKIKPQPEETPEVSDGSSTAKLVKSP	soluble
SNAKKVCVDTCVVIDGRITELIERGKLKDATIIIPEAVVSELEYQANMGREIGYKGIEELRKLIEKASEHNIKVEYYGERPTREEIFLAKSGEIDAMIRKVAKETNSILLTSDWIQYNLAKAQGIEAYFLEAAEEEVELVLD	soluble
SNAMITKAIYPGTFDPITNGHLDLVTRASAMFSHVILAIADSSSKKPMFTLDERVALAKKVTAPLKNVEVLGFSELMAEFAKKHNANILVRGLRSVSDFEYEWQLANMNRHLMPKLESVFLIPSEKWSFISSSLVKEVARHGGDITPFLPKPVTKALLAKLA	soluble
SNAMKELIKEHQKDINPALQLHDWVEYYRPFAANGQSANYIPALGKVNDSQLGICVLEPDGTMIHAGDWNVSFTMQSISKVISFIAACMSRGIPYVLDRVDVEPTGDAFNSIIRLEINKPGKPFNPMINAGALTIASILPGESAYEKLEFLYSVMETLIGKRPRIHEEVFRSEWETAHRNRALAYYLKETNFLEAEVEETLEVYLKQCAMESTTEDIALIGLILAHDGYHPIRHEQVIPKDVAKLAKALMLTCGMYNASGKYAAFVGVPAKSGVSGGIMALVPPSARREQPFQSGCGIGIYGPAIDEYGNSLTGGMLLKHMAQEWELSIF	soluble
SNAMKRKVQVKNITIGEGRPKICVPIIGKNKKDIIKEAKELKDACLDIIEWRVDFFENVENIKEVKEVLYELRSYIHDIPLLFTFRSVVEGGEKLISRDYYTTLNKEISNTGLVDLIDVELFMGDEVIDEVVNFAHKKEVKVIISNHDFNKTPKKEEIVSRLCRMQELGADLPKIAVMPQNEKDVLVLLEATNEMFKIYADRPIITMSMSGMGVISRLCGEIFGSALTFGAAKSVSAPGQISFKELNSVLNLLHKSIN	soluble
SNAMLFCDDSKKYLKEQNINLKNEFDKDDKRVEKFSLKHQNIYFDYSKNLINDYILKSLLESAEKSSLKDKIKQMFNGAKINSTEHRAVLHTALRDLSSTPLIVDGQDIRQEVTKEKQRVKELVEKVVSGRWRGFSGKKITDIVNIGIGGSDLGPKMVVRALQPYHCTDLKVHFVSNVDADSLLQALHVVDPETTLLIIASKSFSTEETLLNSISAREWLLDHYEDEKAVANHFVAISSKLDKVKEFGIDLEHCYKMWDWVGGRYSLWSSIGMSIAFAIGYDNFEKLLAGAYSVDKHFKETEFSKNIPVIMALLASYYSCTYNSQSQALLPYDERLCYFVDYLQQADMESNGKSVNIAGETVNYQTGVVLWGGVGTNGQHAFHQLLHQGNIFIPVDFIAIATSHHNYDNHQQALLANCFAQSQALMFGQSYDMVYNELLKSGLNETQAKELAAHKVIPGNRPSTTILLDELSPYSLGALIALYEHKIFVQGVLWDINSYDQWGVELGKKLGKNILKAMNDDSSDEYQNLDDSTRQLIAKVKNK	soluble
